Results reported in publication PMC12394151 (2025).

Experiments:
Test in all cases: BLI
GP01-Fc = GP01-Fc (llama (Lama glama))
GP13-Fc = GP13-Fc (llama (Lama glama))
GP20-Fc = GP20-Fc (llama (Lama glama))
GP11-Fc = GP11-Fc (llama (Lama glama))

koff (GP01-Fc): 0.00223 s⁻¹
koff (GP13-Fc): 0.00288 s⁻¹
koff (GP20-Fc): 0.000737 s⁻¹
koff (GP11-Fc): 0.00042 s⁻¹
B1: recombinant human gp130 with His-tag (Acro, ILT-H52H2) (receptor)
chain: ELLDPCGYISPESPVVQLHSNFTAVCVLKEKCMDYFHVNANYIVWKTNHFTIPKEQYTIINRTASSVTFTDIASLNIQLTCNILTFGQLEQNVYGITIISGLPPEKPKNLSCIVNEGKKMRCEWDGGRETHLETNFTLKSEWATHKFADCKAKRDTPTSCTVDYSTVYFVNIEVWVEAENALGKVTSDHINFDPVYKVKPNPPHNLSVINSEELSSILKLTWTNPSIKSVIILKYNIQYRTKDASTWSQIPPEDTASTRSSFTVQDLKPFTEYVFRIRCMKEDGKGYWSDWSEEASGITYEDRPSKAPSFWYKIDPSHTQGYRTVQLVWKTLPPFEANGKILDYEVTLTRWKSHLQNYTVNATKLTVNLTNDRYLATLTVRNLVGKSDAAVLTIPACDFQATHPVMDLKAFPKDNMLWVEWTTPRESVKKYILEWCVLSDKAPCITDWQQEDGTVHRTYLRGNLAESKCYLITVTPVYADGPGSPESIKAYLKQAPPSKGPTVRTKKVGKNEAVLEWDQLPVDVQNGFIRNYTIFYRTIIGNETAVNVDSSHTEYTLSSLTSDTLYMVRMAAYTDEGGKDGPEFTFTTPKFAQGEIE
